# Measured values: paper PMC9609998, “Bioimaging Nucleic-Acid Aptamers with Different Specificities in Human Glioblastoma Tissues Highlights Tumoral Heterogeneity”
# B1: H02-Cy5 (XNA)
# RNA: GGUUACCAGCCUUCACUGCGGACGGACAGAGAGUGCAACCUGCCGUGCCGCACCACGGUCGGUCACAC
# modifications: 2'-fluoro pyrimidines (2'F-RNA)
# Target: integrin α5β1 (in human FFPE glioblastoma sections) (human, UniProt P08648;P05556 42-1049;21-798)
# Test: aptahistofluorescence; FFPE GBM, 1 or 2 µM aptamer; frozen sections too low to detect; Flow cytometry: 300,000 cells detached with 0.2 M EDTA, 30 min with Cy5-aptamer; tissue: selection buffer, 2% BSA +/- 100 µg/mL yeast tRNA block, 1 h on ice; aptamers denatured at 95 °C 3 min then ice 5 min; buffer composition, salt and pH not given in material
# Details: protein: native; copies: 1;1; label: 3'-Cy5
# Chain of integrin α5β1 (in human FFPE glioblastoma sections) (P08648 42-1049, chain 1 of 2): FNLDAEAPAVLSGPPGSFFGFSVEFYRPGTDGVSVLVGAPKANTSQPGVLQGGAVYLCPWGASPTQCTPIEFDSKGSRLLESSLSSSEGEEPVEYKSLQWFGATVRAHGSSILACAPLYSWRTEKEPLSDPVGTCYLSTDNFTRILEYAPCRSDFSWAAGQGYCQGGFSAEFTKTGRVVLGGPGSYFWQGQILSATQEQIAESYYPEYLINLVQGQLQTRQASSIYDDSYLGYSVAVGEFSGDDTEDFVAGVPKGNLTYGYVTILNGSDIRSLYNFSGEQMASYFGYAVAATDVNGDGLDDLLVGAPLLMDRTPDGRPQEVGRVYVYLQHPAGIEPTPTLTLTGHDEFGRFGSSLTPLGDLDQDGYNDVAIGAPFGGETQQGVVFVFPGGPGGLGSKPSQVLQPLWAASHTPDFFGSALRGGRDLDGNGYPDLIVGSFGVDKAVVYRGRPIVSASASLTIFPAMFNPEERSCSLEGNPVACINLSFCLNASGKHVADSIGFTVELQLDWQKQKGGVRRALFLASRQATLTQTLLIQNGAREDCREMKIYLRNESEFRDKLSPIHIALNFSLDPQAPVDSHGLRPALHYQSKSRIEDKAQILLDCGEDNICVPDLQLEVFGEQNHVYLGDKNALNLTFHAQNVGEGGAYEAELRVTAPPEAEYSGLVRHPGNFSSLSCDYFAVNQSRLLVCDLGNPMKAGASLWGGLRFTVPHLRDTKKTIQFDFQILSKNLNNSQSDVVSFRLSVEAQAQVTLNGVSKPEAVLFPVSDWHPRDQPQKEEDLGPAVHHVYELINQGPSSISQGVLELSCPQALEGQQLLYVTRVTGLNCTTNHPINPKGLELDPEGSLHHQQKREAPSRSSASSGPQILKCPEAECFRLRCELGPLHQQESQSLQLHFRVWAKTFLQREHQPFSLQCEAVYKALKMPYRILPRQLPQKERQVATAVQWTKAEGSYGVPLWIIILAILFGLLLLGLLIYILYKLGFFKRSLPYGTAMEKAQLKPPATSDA
# Chain of integrin α5β1 (in human FFPE glioblastoma sections) (P05556 21-798, chain 2 of 2): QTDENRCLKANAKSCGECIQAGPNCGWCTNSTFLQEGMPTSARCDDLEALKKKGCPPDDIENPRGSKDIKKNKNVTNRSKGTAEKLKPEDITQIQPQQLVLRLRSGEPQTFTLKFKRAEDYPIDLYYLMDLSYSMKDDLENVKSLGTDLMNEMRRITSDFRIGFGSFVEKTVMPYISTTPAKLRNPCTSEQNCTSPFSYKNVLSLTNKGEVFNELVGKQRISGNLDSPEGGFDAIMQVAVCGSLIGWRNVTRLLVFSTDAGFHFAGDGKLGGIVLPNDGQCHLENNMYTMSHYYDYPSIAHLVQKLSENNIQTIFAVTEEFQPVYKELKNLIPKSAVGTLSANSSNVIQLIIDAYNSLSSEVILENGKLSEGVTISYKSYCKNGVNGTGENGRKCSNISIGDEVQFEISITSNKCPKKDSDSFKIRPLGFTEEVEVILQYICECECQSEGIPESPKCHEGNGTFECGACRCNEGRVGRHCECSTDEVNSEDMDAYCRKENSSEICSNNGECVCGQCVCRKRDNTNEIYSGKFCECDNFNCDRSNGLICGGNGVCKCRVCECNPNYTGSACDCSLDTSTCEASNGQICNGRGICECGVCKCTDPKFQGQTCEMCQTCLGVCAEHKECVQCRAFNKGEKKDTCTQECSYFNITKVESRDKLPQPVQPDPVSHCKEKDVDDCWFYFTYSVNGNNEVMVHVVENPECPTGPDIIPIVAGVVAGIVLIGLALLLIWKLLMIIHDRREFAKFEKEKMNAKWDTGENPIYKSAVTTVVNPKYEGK
binder,measurement,value
B1,binding result,binds
